The subject of test [1] is platelets in platelet rich plasma. The experiment in a line: Light transmission aggregometry (LTA) in platelet rich plasma. Format: cell-based, human. Here is the method:
Whole blood from healthy voluntary donors was collected in accordance with an IRB-approved protocol into blue top vacutainer tubes containing 3.2% sodium citrate. Blood was centrifuged at 1000 RPM for 10 minutes at room temperature to collect platelet rich plasma (PRP). PRP in the supernatant was then transferred to fresh tubes, and the remainder of the specimen was centrifuged at 4000 RPM for 10 minutes to obtain platelet poor plasma (PPP). PRP was adjusted to a final platelet count of 250×10^6 platelets/mL with autologous PPP for use in aggregation studies. Potential donors were excluded if there was a history of a bleeding disorder or current anticoagulant use and donors were instructed to avoid NSAIDs for at least 7 days prior to donation. Approval for the human subjects involved in this research was sought and granted by the Committee for the Protection of Human Subjects, Dartmouth-Hitchcock Medical Center, where these studies were conducted in accordance with the Declaration of Helsinki.
Light transmission (i.e., optical) and lumi aggregometry were performed on up to four samples from the same individual simultaneously with a Chrono-Log Model 700 Whole Blood/Optical Lumi Aggregometer (Chrono-Log Corporation, Havertown, Pa.) using procedures provided by the manufacturer that are briefly summarized here.
(§1) Platelet aggregation was determined by measuring the change in light transmittance of stirred PRP over time after addition of various agonists. Prior to each experiment the aggregometer was standardized to reflect 100% and 0% light transmittance with PPP and PRP, respectively, from the donor whose platelets were used in each specific experiment. 500 μL PRP was added to cuvettes containing a magnetic stir bar and allowed to pre-warm to 37° C. in the aggregometer wells for 3 minutes prior to initiating aggregation reactions which were then conducted at 37° C. Aggregation reactions were initiated by direct addition of agonists and/or enzymes to warmed, stirred PRP, and were monitored for an increase in light transmittance for 10 minutes. The increase in light transmittance is directly proportional to the amount of aggregation and is amplified and digitized into a computer (HP Compaq, Hewlett-Packard, Palo Alto, Calif.) with the AGGRO/LINK8 for Windows software (Chrono-Log Corporation, Havertown, Pa.) to generate aggregation curves. […] The platelet aggregometry experiments for all concentrations of MRS 2395 (including the 0 μM point) were conducted with the plasma adjusted to a final concentration of 10% DMSO to solubilize the inhibitor.

Test [2] has as its system platelets of a patient donor with a mild platelet storage pool disorder. The experiment in a line: LTA in platelet rich plasma of a patient donor with a mild platelet storage pool disorder. It is filed as cell-based, human. To be noted: 50 nM NPP4; 2.5 μM ADP; without NPP4 approximately 40%. The protocol:
as §1
NPP4 rescues platelets exposed to NSAIDs. […]

B1: NPP4: soluble recombinant extracellular domain of human NPP4 (NCBI AAH18054.1, residues 1-407 of SEQ ID NO:1), expressed in insect cells (protein, listed as Homo sapiens)
chain: MKLLVILLFSGLITGFRSDSSSSLPPKLLLVSFDGFRADYLKNYEFPHLQNFIKEGVLVEHVKNVFITKTFPNHYSIVTGLYEESHGIVANSMYDAVTKKHFSDSNDKDPFWWNEAVPIWVTNQLQENRSSAAAMWPGTDVPIHDTISSYFMNYNSSVSFEERLNNITMWLNNSNPPVTFATLYWEEPDASGHKYGPEDKENMSRVLKKIDDLIGDLVQRLKMLGLWENLNVIITSDHGMTQCSQDRLINLDSCIDHSYYTLIDLSPVAAILPKINRTEVYNKLKNCSPHMNVYLKEDIPNRFYYQHNDRIQPIILVADEGWTIVLNESSQKLGDHGYDNSLPSMHPFLAAHGPAFHKGYKHSTINIVDIYPMMCHILGLKPHPNNGTFGHTKCLLVDQWCINLPEA
Regarding B1, the maximum aggregation is given as 80% in test [1] (100 nM NPP4 at 80 μM Ap3A) and 90% in test [1] (200 nM NPP4 at 80 μM Ap3A). For the same molecule, the “platelet aggregation response of enzyme in the presence of 80 μM Ap3A (qualitative)” value in test [1] (80 μM Ap3A, enzyme 50-200 nM) is “strong primary and secondary aggregation waves”. For the same molecule, the “platelet aggregation response, agent alone (qualitative)” value in test [1] (agent alone in PRP (Ap3A up to 160 μM; NPP4 100 nM)) is recorded as “does not trigger platelet aggregation”. Also, the “maximum amplitude of aggregation” value in test [2] is given as “approximately 65%”.
